According to patent US7541141B2, “Method of using estrogen-related receptor alpha (ERRα) status to determine prognosis, treatment strategy and predisposition to breast cancer, and method of using ERRα as a therapeutic target for the treatment of breast cancer” (Wisconsin Alumni Research Foundation, priority 1997, dated 2009):
Positions count from the first letter of the chain named. Names may count otherwise.

Experiments:
ERRα = molecular target: T1, ERRα (Homo sapiens, UniProt P11474); conditions: cited from earlier work
T1 sequence (P11474 1-423): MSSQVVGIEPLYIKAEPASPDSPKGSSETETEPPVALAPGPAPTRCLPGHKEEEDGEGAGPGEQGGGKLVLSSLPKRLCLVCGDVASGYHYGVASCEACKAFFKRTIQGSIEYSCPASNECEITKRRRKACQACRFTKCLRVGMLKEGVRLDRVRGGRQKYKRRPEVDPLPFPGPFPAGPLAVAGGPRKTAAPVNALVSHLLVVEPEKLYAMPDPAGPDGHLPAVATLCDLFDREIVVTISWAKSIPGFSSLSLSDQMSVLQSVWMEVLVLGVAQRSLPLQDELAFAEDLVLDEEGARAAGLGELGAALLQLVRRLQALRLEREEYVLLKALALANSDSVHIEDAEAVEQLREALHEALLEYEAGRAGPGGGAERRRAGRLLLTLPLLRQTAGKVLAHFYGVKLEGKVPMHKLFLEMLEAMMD

[1] = system: ERE-dependent transcription in MCF-7 cells; test: p3xERE-TK-luc luciferase reporter, transient transfection; assay type: cell-based, human
Protocol: (§1) Transient Transfections and Luciferase Assays: To assess the role ERRα plays in regulating transcription of an ERE-containing promoter, MCF-7 or HeLa cells grown in 12-well tissue culture plates were co-transfected in parallel with 0.5 μg of pTK-luc versus p3xERE-TK-luc along with the indicated amounts of the empty cloning vector pcDNA3.1, the ERRα1 expression plasmid pcDNA3.1-hERRα1, or mutant variants thereof. Transfections were performed with the aid of the TransIT LT1 transfection reagent (PanVera, Madison, Wis.) as previously described (35). To examine the effects of ER ligands, cells were maintained in stripped medium for 48 h before transfection and the addition of 17β-estradiol (E2) (Sigma) or the pure anti-estrogen ICI-182,780 (Astra Zeneca, London, UK) dissolved in ethanol and diluted in medium to obtain the indicated concentrations. Cells were harvested 48 h post-transfection, and lysates were assayed for luciferase activity normalized to protein concentration as previously described (36).
ERRα Represses Transcription in MCF-7 Cells: Because ERRα can interfere with the binding of ERα to this ERE, might it affect estrogen-responsive transcription? To answer this question, we co-transfected ERα-positive mammary MCF-7 cells in parallel with p3xERE-TK-luc, a reporter plasmid containing three tandem copies of this ERE (FIG. 14A) or the ERE-negative control plasmid, pTK-luc, together with 0.12 or 0.25 μg of the ERRα1 expression plasmid, pcDNA3.1-hERRα1, or the empty parental expression plasmid, pcDNA3.1. After incubation for 48 h in medium containing whole FBS, the cells were harvested and assayed for luciferase activity. The presence of the EREs conferred an about 150-fold increase in transcriptional activity above the level observed in the cells transfected with the ERE-negative reporter plasmid (FIG. 14B). […] Thus, ERRα inhibits the estrogen-responsive activation of transcription from this ERE-containing promoter in this ER-positive MCF-7 cell line.
ERRα Modulates Estrogen-responsiveness in MCF-7 Cells: To directly examine the effect of ERRα on the response to estrogen, MCF-7 cells were cultured in medium containing estrogen-free charcoal-stripped FBS and cotransfected as described above but in the absence or presence of E2. […] Once again, overexpression of ERRα repressed ERE-dependent transcription approximately 3-fold while having little if any effect on transcription of the control reporter (FIG. 15A).

[2] = system: ERE-dependent transcription in HeLa cells; test: as above; assay type: cell-based, human; conditions: whole FBS
Protocol: as §1, with “cells were maintained in stripped medium for 48 h before transfection and the addition of 17β-estradiol” left out
ERRα Activates Transcription in HeLa Cells: Our finding that ERRα represses transcription from an ERE-controlled promoter was somewhat surprising since most reports in the literature conclude that ERR family members function as transcriptional activators of ERE-dependent transcription (17-31). […]

ERRγ = ERRγ (Homo sapiens, UniProt P62508); conditions: cell-based assays; cited from earlier work
[3] = system: ERE-independent TK-luc transcription in MCF-7 cells; test: pTK-luc ERE-negative control luciferase reporter, transient transfection; assay type: cell-based, human; conditions: whole FBS, 48 h
Protocol: as §1

[4] = 0.12 or 0.25 μg expression plasmid, whole FBS, 48 h

Chain of ERRγ (P62508 whole entry): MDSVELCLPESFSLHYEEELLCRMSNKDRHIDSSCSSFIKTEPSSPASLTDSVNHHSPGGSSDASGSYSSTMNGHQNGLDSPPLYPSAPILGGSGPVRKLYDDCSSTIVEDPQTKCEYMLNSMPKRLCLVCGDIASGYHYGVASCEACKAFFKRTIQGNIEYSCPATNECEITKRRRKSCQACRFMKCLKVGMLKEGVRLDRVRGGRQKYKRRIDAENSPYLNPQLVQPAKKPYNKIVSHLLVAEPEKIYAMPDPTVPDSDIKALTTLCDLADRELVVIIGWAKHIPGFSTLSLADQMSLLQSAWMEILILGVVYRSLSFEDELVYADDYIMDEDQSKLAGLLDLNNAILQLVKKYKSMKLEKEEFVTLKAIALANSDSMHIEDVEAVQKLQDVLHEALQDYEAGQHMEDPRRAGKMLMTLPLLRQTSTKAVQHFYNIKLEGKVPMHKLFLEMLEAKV

For CC1(C)C(C(Cl)Cl)C2(Cl)C(Cl)C(Cl)C1(Cl)C2(Cl)Cl (centres unmarked) [toxaphene], the “Effect on ERRα activity (literature)” value (ERRα) is listed as “decrease the activity of ERRα”.

In the case of C[C@]12CC[C@@H]3c4ccc(O)cc4C[C@@H](CCCCCCCCC[S+]([O-])CCCC(F)(F)C(F)(F)F)[C@H]3[C@@H]1CC[C@@H]2O (some centres unmarked) [ICI-182,780, reference compound], the “Effect of anti-estrogen on ERE-dependent activity” value (shortened to “Effect … on ERE-dependent activity”) ([1]; 1×10^−6 M, charcoal-stripped FBS plus 1×10^−8 M E2) is reported as “extremely sensitive”, the “Effect of anti-estrogen on E2 induction of ERE reporter” value ([1]; 1×10^−6 M, charcoal-stripped FBS plus 1×10^−10 M E2) is reported as “completely eliminated” and the “Effect … on ERE-dependent activity” value ([1]; 1×10^−6 M, charcoal-stripped FBS, no exogenous E2) is reported as “largely ablated”. The “Effect … on ERE-dependent activity” value ([1]; 1×10^−6 M, medium with whole FBS) was “extremely sensitive” and the “Effect … on ERE-dependent activity” value [2] was “completely insensitive”.

In the case of 4-hydroxytamoxifen, the “Effect on ERRγ (literature)” value (ERRγ) is given as “selectively antagonizes ERRγ”.

For ClC1=C(Cl)C2(Cl)C3C(Cl)C(Cl)CC3C1(Cl)C2(Cl)Cl (centres unmarked) [chlordane], the “Effect on ERRα activity (literature)” value (ERRα) is given as “decrease the activity of ERRα”.

B1: ERRα: wild-type human ERRα1 overexpressed from plasmid pcDNA3.1-hERRα1 (protein)
chain: T1 sequence (P11474 1-423)
With B1 the “Repression of ERE-dependent transcription by overexpression” value (from here on “Repression”) [1, 4] was 3-4 fold, the “Inhibition of E2-mediated activation of transcription by overexpression” value ([1]; charcoal-stripped FBS plus 1×10^−8 M E2) was “no longer inhibited” and the “Inhibition of E2-mediated activation of transcription by overexpression” value ([1]; charcoal-stripped FBS plus 1×10^−10 M E2) was 3-5 fold. For the same molecule, the “Repression” value ([1]; charcoal-stripped FBS, no exogenous E2) was “approximately 3 fold” and the “Activation of transcription from p3xERE-TK-luc by overexpression” value ([2]; 48 h) was 2.5 fold.

B2: ERRα1413A/418A: ERRα1 variant with alanine in place of leucine at amino acids 413 and 418 (NR box) (protein)
chain: T1 sequence (P11474 1-423) with L413A, L418A
With B2 the “Repression” value [1, 4] was 5-8 fold, the “Repressive effect on ERE-dependent transcription normalized to the control” value ([1]; normalized to pTK-luc control) was 10-16 fold and the “Up-regulation of ERE-independent TK-luc transcription by overexpression” value [3] was “approximately 2 fold”.

B3: ERRα1P-box: ERRα1 variant with E97G/A98S/A101V in the P-box, unable to bind DNA (protein)
chain: T1 sequence (P11474 1-423) with E97G, A98S, A101V
For B3, the “Induction of ERE-dependent transcription by overexpression” value ([1]; whole FBS, 48 h) was 2-3 fold.
